The record followed here is patent US7585511.

Assay [1] deals with N-terminal His-tagged version of serum resistance associated protein (SRA) (aa 1-251), wild type (Trypanosoma brucei rhodesiense). Kind of assay: pull-down of in vitro synthesized [35S]-apoL-I mutant with His-SRA on Ni-NTA beads, scintillation counting.
Assay [2] concerns the target I58Q/I62Q serum resistance associated protein (SRA), His-tagged (Trypanosoma brucei rhodesiense). Description: pull-down of in vitro synthesized [35S]-apoL-I with mutant His-SRA on Ni-NTA beads, scintillation counting.

“[35S]-apoL-I L345Y/L352A/Y354L point mutant, with C-terminal V5 tag (from UniProt O14791 16-398)”: the binding (%) in assay [1] amounted to 67%.

“[35S]-apoL-I truncated version ending at aa 342, with C-terminal V5 tag (from UniProt O14791 28-342)” came in with a binding (%) in assay [1] of 5%.

In assay [1], “[35S]-apoL-I truncated version ending at aa 355, with C-terminal V5 tag (from UniProt O14791 28-355)” returned a binding (%) of 24%.

As for “in vitro synthesized [35S]-apoL-I, wild type, with C-terminal V5 tag (from UniProt O14791 16-398)”, the binding (%) in assay [2] was 50%.
